Experimental findings from publication PMC5025653 are described below.

The target of this assay is C-terminal region of IbOr (IbOr-C), recombinant (sweetpotato (Ipomoea batatas)). Briefly: native gel or EMSA; 10% native PAGE gel, silver-stained; recombinant IbOr and truncated fragments.

As for “C-terminal region of IbOr (IbOr-C), recombinant (domain or fragment)”, the stoichiometry N was determined as 3.
